The test deals with SARS-CoV-2 S2P spike (prefusion-stabilized trimer) (SARS-CoV-2 Wuhan-Hu-1). In words: cryo-EM structure.

For 2–36 Fab, the stoichiometry N (Fabs per spike) worked out at 3.
